# Results as given in PMC4210143.
# Target: soluble recombinant NadA_(Δ351-405) (rNadA), Neisseria meningitidis adhesin A lacking the membrane anchor region (Neisseria meningitidis) (UniProt Q8KH85)
# Experiment: SEC-MALS; rNadA 1,7 mg/ml in 10 mM NaH2PO4 150 mM NaCl pH 7.2, heated at 37°C for 30 min, 1, 2 and 4 hrs; TSK Super SW3000, eluted in 0.1 M NaH2PO4, 0,1 M NaHSO4 pH 7.0; MALLS detector Dawn TREOS
substance,measurement,value
"soluble recombinant NadA_(Δ351-405) (rNadA), Neisseria meningitidis adhesin A lacking the membrane anchor region (from UniProt Q8KH85 1-350) (domain or fragment)",percent of the preparation present as the native trimer,95%
same,stoichiometry N,3
